# Source: US20250382354A1 (INSTITUTE FOR RESEARCH IN BIOMEDICINE IRB, published 2025)
# Where a chain is given by its changes, count along the chain named.
# B1: hr2.017 (antibody, V domains shown)
# VH: EVQLVESGGGLVQPGGSLRLSCAVSGFAFSSSWMHWIRQAPGRGLVWVSRINRDGSTTDYADSVKGRFTISRDNAKATLYLQMNSLRAEDTAVYYCATMGFDYWGQGALVTVSS
# VL: DIVMTQSPDSLAVSLGERATINCKSSQNVLYSSNNKNHLSWYQQKPGQPPKLLIYWASTRKSGVPDRFSGSGSGTDFTLTINSLQAEDVAVYYCQQYFSTPNTFGQGTKLEIK
# B2: hr2.025 (antibody, V domains shown)
# VH: EVQLVQSGAEVKKPGESLKISCKGSGYSFTNYWIAWVRLMPGKGLEWMGFIFPGDSDTRYSPSFQGQVTISADKSISTAYLQWSSLKASDTAIYYCARRRGNSGNHDPYGMDVWGHGTTVTVSS
# VL: not shown
# B3: hr2.027 (antibody, V domains shown)
# VH: B2 VH with T30A, S77T, Q82H, Y95F
# VL: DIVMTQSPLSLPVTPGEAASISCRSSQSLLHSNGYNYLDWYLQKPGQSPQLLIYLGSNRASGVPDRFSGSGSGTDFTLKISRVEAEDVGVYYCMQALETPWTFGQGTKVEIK
# B4: fp.004 (antibody, V domains shown)
# VH: VQLVESGGGVVQPGTSLRLSCVASGFTFSNYAMHWVRQAPGKGLEWVAIISFDTRNTASAASVKGRFNISRDNSKNSLYLQMNSLRPEDTGVYYCARDLFLSDYDSRGYDPITGGFDCWGQGTLVTVSS
# VL: EIVMTQSPAALSVSPGEGATLSCRASQSVGSRLAWYQQKLGRPPRLLIYGASTRATGIPARFSGSGSGTEFTLTISSLQSEDFAVYYCQQYNDWPLLTFGGGTKVKIK
# B5: hr2.016 (antibody, V domains shown)
# VH: EVQLLESGGGLVQPGGSLRLSCAASGFMFSKYAMTWVRQTPGKGLEWVSVISGGGGSTYYADSVKGRFTISRDNSKNTLYLQMNSLRAEDTAVYYCAKLLVVFVIDYWGQGALVTVSS
# VL: EIVLTQSPGTLSLSPGERATLFCRASQSVSSNLAWYQQKPGRAPRLLISGASSRATGIPDRFSGSGSGTDFTLTISRLEPEDFAVYYCQQYGSSPPTFGQGTKVEIK
# B6: fp.011 (antibody, V domains shown)
# VH: EVQLLESGGGLVQPGGSLRLSCAGSGFTFNNYAMTWVRQAPGRGLEWVSAISGSGGSSHYADSVKGRFTITRDNSKNTLYLQMNSLRAEDTAVYYCAFIDYYSGWSYYYGLDVWGQGTTVTVSS
# VL: EIVLTQSPATLSLSPGERATLSCRASQGVRTYVAWYQQKPGQAPRLLIYDASNRATGIPARFSGSGSGTDFTLTISSLEPEDFAVYYCQQRYNWPLCSFGQGTKLEIK
# B7: hr2.020 (antibody, V domains shown)
# VH: EVQLVQSGAEVKKPGESLKISCKGSGYRFASHWIGWVRQMPGKGLQWMGIIYPGDSDTKYSPSFQGQVTISADKSINTVYLHWTSLKASDTAVYYCARRPPHLDGGDSPIRFDHWGQGTLVTVSS
# VL: QSVLTQPPSASGTPGQRVTISCSGSRSNIGSNDVYWYQQFPGTAPKLLIYRNNQRPSGVPDRFSGSKSGTSASLAISGLRSEDEADYYCATWDDRLTGVFGGGTKLTVV
# B8: fp.005 (antibody, V domains shown)
# VH: VQLVESGGGVVQPGNSLRLSCAASGFRFNNYAMHWVRQAPGKGLEWVAIISYEARNEKYADSVKGRFSISRDNAKNTLYLQMNSLRADDTGVYYCARDLFLSDYDTSGYDRTRGGFDYWGQGALVTVSS
# VL: EIVMTQSPATLSVSPGERATLSCRASQSVSNGLAWYQHRFGQPPRLLIYGASTRATGIPTRFSGSGSGTEFTLTISSLQSEDFAVYYCQQYDDWPLITFGGGTKVEIK
# B9: hr2.012 (antibody, V domains shown)
# VH: QVQLVQSGAEVKKPGASVKVSCKASGYTFTSHYIHWVRQAPGQGLEWMGIIKPSGGNTIYAQTFQGRVTMTRDTSTSTVYMELRSLTSDDTAVYYCARDQDHGLQRWGQGTLVTVSS
# VL: QSVLTQPPSVSAPPGQKVTISCSGSSSNIGNNFVSWYQQLPGTAPKLLIYDNIERPSGIPDRFSGSRSGTSATLGITGLQTGDEADYYCGTWDTSLGAWVFGGGTKVTVL
# B10: hr2.015 (antibody, V domains shown)
# VH: QVQLVQSGAEVKKPGASVKVSCKASGYTFSSYYVNWVRQAPGQGLEWLGIINRSGSSTIYAQKFQGRVTMTRDTSTSTVYLELSSLRSEDTAVYYCARDQDHALHWGQGTLVTVSS
# VL: B9 VL with P13A, N31S, F33Y, I53S, G97S, V107L
# B11: hr2.013 (antibody, V domains shown)
# VH: QVQLVQSGAEVKKPGASVKISCKASGYTFTNNYMNWVRQAPGQGLEWMGIIKPSSGSTIYAHKFQGRVTMTRDTSTSTVYMEVRSLTSEDTAVYYCARDQDHGLQNWGQGTLVTVSS
# VL: B9 VL with P13A, P14S, S21Y, G30A, N31S, L40F, I53N, E54Q, V107L
# B12: fp.008 (antibody, V domains shown)
# VH: VQLVESGGGVVQPGRSLRLSCRASGFRFNNYAMHWVRQAPGKGLEWVAIISYEARNEKYAASVKGRFSISRDNAKNTLYLQMNSLRPEDTAIYYCARDVFLSDYDQSGYDVTRGGFDYWGQGTLVTVSS
# VL: EIVMTQSPATLSVSPGESATLSCRASQSVSSSLAWYQHKFGQAPRLLIYGASTRATGIPDRFSGSGSGMEFTLTISSLQSEDVAIYYCQQYGDWPLVTFGGGTKVEIK
# B13: fp.009 (antibody, V domains shown)
# VH: VQLVESGGGVVQPGTSLTLSCEASGFTFSNYAMHWVRQAPGKGLEWVAIISFDTRNKKFAGSVQGRFSISRDNAKNSIYLQMNNLRPEDTGIYYCARDVFLSDYDSRGFDRTRGGFDYWGQGTLVTVSS
# VL: B12 VL with S18K, Q27E, S30G, H38Q, F40L, D60A, M69A, V83F, V97L
# B14: fp.006 (antibody, V domains shown)
# VH: VQLVESGGGVVQPGGSLRLSCAASGFNFNNYALHWVRQAPGKGLEWVAIISYEARNKKYGVSVMGRFSISRDNSKSIMYLEMNSLRVEDTGVYYCARDLFLSDYDRSGYDPTRGGFDHWGQGTLVTVSS
# VL: B12 VL with S18R, K39R, Y49S, D60G, M69T, I85V
# B15: fp.002 (antibody, V domains shown)
# VH: VQLVESGGGVVQPGTSLRLSCAGSGFNFDNYAIHWVRQAPGQGLEWVAIISYEARNKKYAGSVTGRFSISRDNSKSMVYLQMDSLRGEDTAVYYCARDLFLSDYDRSGYDPTRGGFDLWGQGTLVTVSS
# VL: B12 VL with S18R, F40L, D60G, M69T
# B16: hr2.021 (antibody, V domains shown)
# VH: QVQLVQSGAEVKKPGASVKVSCKASEAIFSGSYLHWVRQAPGQGLEWMGIITPSGDKTFYAQRFQGRLTMTRDTSTNTLHMHLSGLNSEDTAMYYCARQADKGGWDYWGQGTLVTVSS
# VL: EIVLTQSPGTLSLSPGERATLSCRASQSVTSNYVAWYQQKPGQAPRLLIYGASTRATGIPDRFSGGGSGTDFTLTITRLEPEDFAVYYCQQYGSSPPTFTFGPGTKVDIK
# B17: hr2.024 (antibody, V domains shown)
# VH: QVQLVQSGAEVKKPGASVKVSCKASEDIFTDSYLHWVRQAPGQGLEWMGIITPSGDKTFYAQQFQGRLTMTRDPSTNTLYMFLSGLRSDDTAMYFCARQAEKGGWDYWGHGTLVTVSS
# VL: B16 VL with E17Q, A25S, S28T, V29I, V34L, K40R, T54I, G66S, T77S, T100I
# B18: hr2.023 (antibody, V domains shown)
# VH: QVQLVQSGAEVKKPGASVKVSCRASENIFSDSYLHWVRQAPGQGLEWMGIITPSGDKTFYAQQFQGRLTMTRDTPTNTLHMDLRGLTSADTAIYYCARQATKGGWDYWGQGTLVTVSS
# VL: B16 VL with R18S, S31R, V34L, K40Q, T54N, I59V, G66S, T77S, T100I
# B19: fp.010 (antibody, V domains shown)
# VH: EVQLLESGGGLVQPGGSLRLSCAASGFTFSTYAMNWVRQAPGKGLEWVSAISSSGLSTQYADSVRGRFTISRDTSKNTLYLHMNSLRAGDTAVYYCAKVEYSGYDPRGPFDSWGQGTLVTVSS
# VL: DIQMTQSPSTLSASVGDRVTITCRASQSISGWLAWYQQKPGRAPKLLIYKASSLERGVPSRFSGSGSGTEFTLTISSLQPDDFATYYCQEYSSYPLCTFGQGTKLEIK
# B20: fp.001 (antibody, V domains shown)
# VH: VQLVESGGGVVQPGRPLRLSCSGSGFIFSNYAMHWVRQAPGKGLEWVAIISFDARNKRYADSVEGRFTISRDNSKNILYLQMNSLRLEDSAVYFCARDLFLSDYDNGVYDPTRGGFDYWGQGTLVTVSS
# VL: EIVMTQSPATLSLSPGERATLSCRASQSVNNRLAWYQQKLGQPPRLLISGASTRATGIPARFTGSGSGTEFTLTISSLQSEDFAVYYCQQYHDWPLLSFGGGTKVEIK
# B21: fp.003 (antibody, V domains shown)
# VH: VQLVESGGGVVQPGTSLRLSCTASGFSFSNYAMHWVRQAPGKGLEWVAIISFDTRNKEFADSVKGRFSISRDNSKNSLNLQMNSLRPEDTGVYYCARDLFLSDYDSRGYEPSRGGFDYWGQGTLVTVSS
# VL: B4 VL with A10T, G18R, G30S, R32S, R42Q, Q79K, F83S, T98S, K106E
# Experiments:
# [1] = molecular target: HKU24 HR2 peptide (HKU24); assay: peptide ELISA
# [2] = molecular target: C-terminally truncated SARS-CoV-2 S protein (pSARS-CoV2-Strunc), ancestral (SARS-CoV-2, UniProt P0DTC2 14-1273); assay: cell-based or functional assay
# [3] = molecular target: Eidolon HR2 peptide (Eidolon); assay: peptide ELISA
# [4] = molecular target: SADS FP peptide (SADS); assay: peptide ELISA
# [5] = molecular target: T1, HCoV-229E S ectodomain (HCoV-229E); assay: ELISA on coated S
# T1 construct: range 17-1142
Binder,EC50 [1],Ancestral Pseudovirus IC50 [2],EC50 [3],EC50 [4],EC50 [5],Ancestral Pseudovirus IC50 (on cells with [not given]) [2]
B1,0.0176 µg/mL,542 ng/mL,,,,
B2,0.0719 µg/mL,,2.92 µg/mL,,,
B3,0.0919 µg/mL,,1.21 µg/mL,,,
B4,,7840 ng/mL,,0.0276 µg/mL,0.037 µg/mL,
B5,0.00958 µg/mL,10 ng/mL,0.033 µg/mL,,,12 ng/mL
B6,,,,0.0276 µg/mL,0.151 µg/mL,
B7,0.0329 µg/mL,,,,,
B8,,9090 ng/mL,,0.0252 µg/mL,0.0416 µg/mL,
B9,0.0249 µg/mL,1720 ng/mL,0.463 µg/mL,,,
B10,0.0482 µg/mL,3830 ng/mL,,,,
B11,0.027 µg/mL,,0.186 µg/mL,,,
B12,,3560 ng/mL,,0.024 µg/mL,0.0482 µg/mL,
B13,,873 ng/mL,,0.0247 µg/mL,0.0285 µg/mL,
B14,,,,0.0154 µg/mL,0.0349 µg/mL,
B15,,16100 ng/mL,,0.0252 µg/mL,0.04 µg/mL,
B16,0.0195 µg/mL,3020 ng/mL,,,,
B17,0.0218 µg/mL,301 ng/mL,,,,
B18,0.0124 µg/mL,,0.126 µg/mL,,,
B19,,,,0.0644 µg/mL,,
B20,,2190 ng/mL,,0.0255 µg/mL,0.028 µg/mL,
B21,,9260 ng/mL,,0.0305 µg/mL,0.0443 µg/mL,
